Results from paper PMC4141209.

Substrate: O=C(O)[C@H]1NCC[C@@H]1O
Assay: purified protein
Conditions: pH 8.0 Tris-HCl, 50 °C, 0.15 mM NADH, TlLhpI as coupling enzyme

B1: TlLhpH (Thermococcus litoralis DSM 5473) (protein)
chain: MFKKLENLEKWEPPKDWMVIKTLDTHTAGEPLRIILSGFPEIPGKTILEKRRYLMENLDHLRKALMWEPRGHADMYGAIITEPVSEEADFGVIFMHNEGYSTMCGHATIALGKVAVECGLVEAKEPITEIKMDSPAGLIKIYVKVRDGKVEKVYFHNVPSFVLFKDETINVPGIGEVKYDLAYGGAFYAFVNAEEIGLKCTPEYYRQLIDVGMKIKRAIMSEKEIRHPFEEDLSFLYGTIFIGEPEDENSHSRHVCIFADGEVDRSPTGTGVSARLAILYEKGEIDIGEEITIESIIGTKFTGKVVEETRYGLYRAIIPEVGGNAYIVAKNTFLIDPQDPLKYGFFLR
- Km: 288 µM
- kcat: 28.5 s⁻¹
